Values belong to the substance of their own block, whether it stands above or below them.
How the values were obtained:
[1] = target: purified recombinant galectin-3 (gal3) (UniProt P17931); test: solid phase assay, inhibition of gal3 binding to asialofetuin
[2] = target: purified recombinant galectin-3 (gal3) (UniProt P17931); test: cell-based or functional assay
[3] = target: gal3 on the surface of human PC3 and HUVEC cells (human) (UniProt P17931); test: cell-based or functional assay
[4] = target: gal3 on the surface of B16 melanoma cells (murine) (UniProt P16110); test: cell-based or functional assay
gal3 on the surface of B16 melanoma cells (murine), sequence (P16110 2-264): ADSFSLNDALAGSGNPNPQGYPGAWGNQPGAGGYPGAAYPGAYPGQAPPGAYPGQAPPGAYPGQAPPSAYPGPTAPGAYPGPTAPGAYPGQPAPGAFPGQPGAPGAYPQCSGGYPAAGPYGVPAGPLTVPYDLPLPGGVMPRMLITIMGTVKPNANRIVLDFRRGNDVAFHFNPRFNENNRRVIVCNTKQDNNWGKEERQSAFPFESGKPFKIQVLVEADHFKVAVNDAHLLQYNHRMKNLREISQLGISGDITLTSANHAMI

[5] = target: prostate cancer patient serum-associated gal3 (human) (UniProt P17931); test: cell-based or functional assay
prostate cancer patient serum-associated gal3 (human), sequence (P17931 2-250 limits assumed): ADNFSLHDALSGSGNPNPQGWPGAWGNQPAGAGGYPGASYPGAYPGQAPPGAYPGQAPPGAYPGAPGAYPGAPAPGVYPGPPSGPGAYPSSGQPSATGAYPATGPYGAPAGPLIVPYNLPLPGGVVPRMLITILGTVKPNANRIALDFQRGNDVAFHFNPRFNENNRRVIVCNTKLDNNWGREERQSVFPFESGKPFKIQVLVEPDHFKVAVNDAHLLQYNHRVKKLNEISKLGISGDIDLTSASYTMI

[6] = target: purified recombinant galectin-3 (gal3) (UniProt P17931); test: SPR (Biacore T200), derived from the dissociation rate
[7] = target: purified recombinant galectin-3 (gal3) (UniProt P17931); test: solid phase assay, inhibition of gal3 binding to plate-bound asialofetuin (competitor)
[8] = target: purified recombinant galectin-3 (gal3) (UniProt P17931); test: SPR (Biacore T200), biotinylated gal3 captured on SA chip, 1:1 binding model
[9] = target: gal4; test: solid phase assay, inhibition of gal4 binding to asialofetuin
[10] = target: purified recombinant galectin-3 (gal3) (UniProt P17931); test: SPR (Biacore T200), biotinylated gal3 captured on SA chip, TFD100 0.312-10 nM, 1:1 binding model
[11] = target: gal4; test: solid phase assay, inhibition of gal4 binding to plate-bound asialofetuin (competitor), anti-galectin antibody detection
[12] = target: N-terminal of gal9 (gal9N); test: solid phase assay, inhibition of gal9N binding to asialofetuin
[13] = target: purified recombinant galectin-3 (gal3) (UniProt P17931); test: solid phase assay, inhibition of gal3 binding to asialofetuin, molar basis
[14] = target: N-terminal of gal9 (gal9N); test: solid phase assay, inhibition of gal9N binding to plate-bound asialofetuin (competitor), anti-galectin antibody detection
[15] = target: gal3 on the surface of human PC3 and HUVEC cells (human) (UniProt P17931); test: flow cytometry on PC3 cells (unstained cells 205), control
[16] = target: gal3 on the surface of human PC3 and HUVEC cells (human) (UniProt P17931); test: flow cytometry on HUVEC cells (unstained cells 97), control
[17] = target: gal3 on the surface of B16 melanoma cells (murine) (UniProt P16110); test: flow cytometry on B16 melanoma cells (unstained cells 214), control

purified recombinant galectin-3 (gal3), sequence (P17931 whole entry, the tested form may be a part): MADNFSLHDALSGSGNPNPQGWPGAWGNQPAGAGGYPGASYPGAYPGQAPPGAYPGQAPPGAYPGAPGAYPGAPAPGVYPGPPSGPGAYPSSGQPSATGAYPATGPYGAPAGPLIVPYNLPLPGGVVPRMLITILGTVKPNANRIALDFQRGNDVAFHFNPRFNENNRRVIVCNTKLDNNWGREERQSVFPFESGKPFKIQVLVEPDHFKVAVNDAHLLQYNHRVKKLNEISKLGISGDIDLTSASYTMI
gal3 on the surface of human PC3 and HUVEC cells (human), sequence (P17931 2-250): as the sequence (P17931 2-250 limits assumed) above

IC50 [1]: 108 µg/mL
RIA (relative inhibitory activity compared to lactose taken as 1) (relative to lactose = 1) [1]: 0.25
Substance: Crude extract (crude anti-freeze glycoproteins of cod, A/F Protein)

IC50 [1]: 82 µg/mL
RIA (relative inhibitory activity compared to lactose taken as 1) (relative to lactose = 1) [1]: 0.33
Substance: Fraction 3 (<30 kDa, >10 kDa) of cod anti-freeze glycoproteins

% inhibition at 6.2 nM [1]: 45%
Substance: O-glycosidase treated TFD100

mean fluorescence unit (mfu) [15]: 759 mfu
mean fluorescence unit (mfu) [16]: 95 mfu
mean fluorescence unit (mfu) [17]: 1000 mfu
Substance: pre-immune IgG (protein A-Sepharose purified pre-immune rabbit serum) (antibody)

The remaining lines, values behind:

Substance: Fraction 1 (>50 kDa) of cod anti-freeze glycoproteins
IC50 [1]: 2.5 µg/mL
RIA (relative inhibitory activity compared to lactose taken as 1) (relative to lactose = 1) [1]: 10.5

Substance: Fraction 2 (<50 kDa, >30 kDa) of cod anti-freeze glycoproteins
IC50 [1]: 27 µg/mL
RIA (relative inhibitory activity compared to lactose taken as 1) (relative to lactose = 1) [1]: 1

Substance: Fraction 4 (<10 kDa, >3 kDa) of cod anti-freeze glycoproteins
IC50 [1]: 300 µg/mL
RIA (relative inhibitory activity compared to lactose taken as 1) (relative to lactose = 1) [1]: 0.09

Substance: Fraction 5 (<3 kDa) of cod anti-freeze glycoproteins
RIA (relative inhibitory activity compared to lactose taken as 1) (relative to lactose = 1) [1]: < 0.06

Substance: TFD100 (Thomsen-Friedenreich disaccharide-containing glycopeptide of approximately 100 kDa purified from Pacific cod, Gadus macrocephalus)
apoptosis of activated pmel CD8+ T cells with 5 µM recombinant gal3 plus 3.5 nM TFD100 (˜76% with gal3 alone, ˜61% CD8 alone) [2]: 72 % apoptosis
inhibition of gal3 (5 µM)-induced apoptosis of MOLT-4 cells by 3.5 nM TFD100 (annexin V binding) [2]: 34%
inhibition of gal3 (5 µM)-induced apoptosis of human CD8+ T cells by 3.5 nM TFD100 [2]: 77%
inhibition of gal3 (5 µM)-mediated apoptosis of Jurkat cells by 3.5 nM TFD100 [2]: 63%
inhibition of binding of calcein-labeled PC3 cells to HUVEC monolayer (PC3 pre-treated with 3.5 nM TFD100) [3]: 33%
inhibition of tumor-endothelial cell interactions (HUVEC monolayer pre-incubated with 3.5 nM TFD100) [3]: 45%
apoptosis of activated tumor specific CD8+ T cells on a B16 monolayer with 3.5 nM TFD100 (about 53% without) [4]: 36 % apoptosis
apoptosis of activated tumor-specific CD8+ cells with patient serum plus 3.5 nM TFD100 (87-93% with patient serum alone) [5]: 66 % apoptosis
half-life for the complex [6]: 38.5 min
IC50 [7]: 0.25 nM
koff [8]: 0.0003 s⁻¹
kon [8]: 3.1e+06 M⁻¹ s⁻¹
RIA (relative inhibitory activity compared to lactose taken as 1) (fold vs lactose) [9]: 8.33e+06
Kd [10]: 0.0968 nM
IC50 [11]: 1.2 nM
RIA (relative inhibitory activity compared to lactose taken as 1) (fold vs lactose) [12]: 66700
fold activity in inhibiting gal3 binding compared to free TFD [13]: 800000 fold
IC50 [14]: 1.5 nM
RIA (relative inhibitory activity compared to lactose taken as 1) (fold vs lactose) [1]: 400000

From patent US20120251580A1
